# Measured values as given in US20220072098A1 (priority 2012, published 2022).
# Experiment: Tissue distribution of trypsinogen-AlexaFluor-488 after i.v. injection
# Type: in vivo, mice
# Details: 200 μg i.v., 30 min
# Method: Trypsinogen—AlexaFluor®-488 was injected i.v. in its free form or encapsulated in the bolavesicles. At 30 min after the injection, mice were anesthetized by Xylazine-Ketamine mixture and blood was withdrawn through cardiac puncture, the mouse was perfused with 10 ml PBS and tissues were dissected out. The dissected tissues were attached to labeled paper stripes, frozen in isopentane cooled over liquid nitrogen, and stored at −80° C. The selected tissues were cryosectioned and the fluorescence of the sections was analyzed using confocal fluorescent microscopy. All images were acquired using the same imaging settings and were not corrected or modified. Fluorescence of slices from different organs was quantified by imaging software after subtracting background fluorescence. In effect, for quantifying the fluorescence in the tissue, the average fluorescence obtained from the control mice, which were injected with PBS instead of the fluorescent material was subtracted from the fluorescence values obtained from the same tissue taken from animals that received Trypsinogen-AlexaFluor®-488. At least 4 slices from each organ of each mouse were used for the quantitative analysis and each group contained 4-5 mice.
# Prior to delivering GDNF to the brain, pilot experiment, in vivo, studies were carried out with the model protein—trypsinogen, which was labeled for this purpose with AlexaFluor®-488. […]
molecule,measurement,value
"free labeled protein: free trypsinogen labeled with AlexaFluor-488 (protein, UniProt P00760 18-246, looked up, pro-form AlexaFluor-488 label) pro-form: VDDDDKIVGGYTCGANTVPYQVSLNSGYHFCGGSLINSQWVVSAAHCYKSGIQVRLGEDNINVVEGNEQFISASKSIVHPSYNSNTLNNDIMLIKLKSAASLNSRVASISLPTSCASAGTQCLISGWGNTKSSGTSYPDVLKCLKAPILSDSSCKSAYPGQITSNMFCAGYLEGGKDSCQGDSGGPVVCSGKLQGIVSWGSGCAQKNKPGVYTKVCNYVSWIKQTIASN",labeled trypsinogen fluorescence in kidney,high fluorescence
